What was measured:
PARP4 WGR-CAT [1] = molecular target: T1, PARP4 WGR-CAT (Homo sapiens, UniProt Q9UKK3 95-573); experiment: EMSA; 100 nM RNA; FP: 50 mM Tris pH 7.5, 50 mM NaCl, 0.05% NP40, 2 mM DTT, 5% glycerol, room temperature 30 min; EMSA: same but 20% glycerol, 100 nM nucleic acid, room temperature 30 min, gel at 4 C in Tris-glycine; details: protein: recombinant; tags: N-terminal His-SUMO tag, cleaved with TEV; label: none (SYBR Gold stain); Mfold secondary structure, annealed
T1 sequence: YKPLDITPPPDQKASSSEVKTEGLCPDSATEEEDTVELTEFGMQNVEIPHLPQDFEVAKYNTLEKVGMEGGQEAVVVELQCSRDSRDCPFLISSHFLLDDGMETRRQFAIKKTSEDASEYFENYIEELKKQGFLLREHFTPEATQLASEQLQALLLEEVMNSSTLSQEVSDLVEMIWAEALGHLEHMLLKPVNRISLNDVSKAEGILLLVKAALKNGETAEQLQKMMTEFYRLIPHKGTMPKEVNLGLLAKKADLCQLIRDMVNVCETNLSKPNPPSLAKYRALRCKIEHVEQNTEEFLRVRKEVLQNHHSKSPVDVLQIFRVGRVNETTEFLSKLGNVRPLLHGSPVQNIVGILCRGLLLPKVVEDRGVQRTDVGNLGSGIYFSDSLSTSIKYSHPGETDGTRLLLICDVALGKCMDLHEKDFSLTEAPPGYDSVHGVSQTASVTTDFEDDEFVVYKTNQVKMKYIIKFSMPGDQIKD

PARP4 BRCT-WGR-CAT [2] = molecular target: T2, PARP4 BRCT-WGR-CAT (Homo sapiens, UniProt Q9UKK3 1-573); experiment: EMSA; 100 nM RNA; apparent Kd; FP: 50 mM Tris pH 7.5, 50 mM NaCl, 0.05% NP40, 2 mM DTT, 5% glycerol, room temperature 30 min; EMSA: same but 20% glycerol, 100 nM nucleic acid, room temperature 30 min, gel at 4 C in Tris-glycine; details: protein: recombinant, tags: N-terminal His-SUMO tag, cleaved with TEV, Mfold secondary structure, annealed
T2 sequence: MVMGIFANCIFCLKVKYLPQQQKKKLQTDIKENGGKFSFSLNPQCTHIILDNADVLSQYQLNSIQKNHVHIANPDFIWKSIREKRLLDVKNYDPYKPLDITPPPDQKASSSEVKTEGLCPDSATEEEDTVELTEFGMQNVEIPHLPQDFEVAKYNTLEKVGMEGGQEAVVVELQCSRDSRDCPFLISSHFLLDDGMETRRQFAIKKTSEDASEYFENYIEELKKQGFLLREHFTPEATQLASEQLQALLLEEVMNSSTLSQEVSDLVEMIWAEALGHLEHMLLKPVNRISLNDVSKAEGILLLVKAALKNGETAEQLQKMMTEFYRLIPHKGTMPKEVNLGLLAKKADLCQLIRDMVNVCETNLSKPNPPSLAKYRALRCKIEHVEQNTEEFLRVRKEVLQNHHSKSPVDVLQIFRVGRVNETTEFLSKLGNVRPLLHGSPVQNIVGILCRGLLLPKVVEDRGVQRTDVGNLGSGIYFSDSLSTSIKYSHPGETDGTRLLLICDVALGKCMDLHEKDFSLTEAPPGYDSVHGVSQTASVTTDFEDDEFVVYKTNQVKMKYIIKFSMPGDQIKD

PARP4 WGR-CAT [3] = molecular target: T1, PARP4 WGR-CAT; experiment: fluorescence polarization; 30 nM RNA; FP: 50 mM Tris pH 7.5, 50 mM NaCl, 0.05% NP40, 2 mM DTT, 5% glycerol, room temperature 30 min; EMSA: same but 20% glycerol, 100 nM nucleic acid, room temperature 30 min, gel at 4 C in Tris-glycine; details: protein: recombinant; tags: N-terminal His-SUMO tag, cleaved with TEV; label: 5'-6-FAM; Mfold secondary structure, annealed
PARP4 BRCT-WGR-CAT [4] = molecular target: T2, PARP4 BRCT-WGR-CAT; experiment: fluorescence polarization; 30 nM RNA; apparent Kd; FP: 50 mM Tris pH 7.5, 50 mM NaCl, 0.05% NP40, 2 mM DTT, 5% glycerol, room temperature 30 min; EMSA: same but 20% glycerol, 100 nM nucleic acid, room temperature 30 min, gel at 4 C in Tris-glycine; details: protein: recombinant; tags: N-terminal His-SUMO tag, cleaved with TEV; label: 5'-6-FAM; Mfold secondary structure, annealed
PARP4 WGR-CAT [5] = molecular target: T1, PARP4 WGR-CAT; experiment: EMSA; 100 nM DNA; FP: 50 mM Tris pH 7.5, 50 mM NaCl, 0.05% NP40, 2 mM DTT, 5% glycerol, room temperature 30 min; EMSA: same but 20% glycerol, 100 nM nucleic acid, room temperature 30 min, gel at 4 C in Tris-glycine; details: protein: recombinant; tags: N-terminal His-SUMO tag, cleaved with TEV; label: none stated (SYBR Gold stain); blunt

B1: HDV ribozyme RNA (84 nt) (structured_RNA)
RNA: GCCGGCCAUGGUCCCAGCCUCCUCGCUGGCGGCCGGUGGGCAACAUUCCGAGGGGACCGUCCCUCGGUAAUGGCGAAUGGGACA
binding result (PARP4 WGR-CAT [1]): no binding
Kd (PARP4 BRCT-WGR-CAT [2]; label: none (SYBR Gold stain)): 3.4 ± 0.3 µM

B2: vtRNA1-2 (structured_RNA)
RNA: GGCUGGCUUUAGCUCAGCGGUUACUUCGAGUACAUUGUAACCACCUCUCUGGGUGGUUCGAGACCCGCGGGUGCUUUCCAGCUCUUUU
binding result (PARP4 WGR-CAT [3]): no binding
Kd (PARP4 BRCT-WGR-CAT [4]): 15 ± 9 µM
Kd (PARP4 BRCT-WGR-CAT [2]; label: 5'-6-FAM): 1.5 ± 0.4 µM

B3: 47-bp DNA duplex (dsDNA)
DNA 1: CAGATCTACCGAATCAGTCCGACGACGCATCTGCACTACGAGGATAC
DNA 2: GTATCCTCGTAGTGCAGATGCGTCGTCGGACTGATTCGGTAGATCTG
binding result (PARP4 WGR-CAT [5]): no binding
